Drawing on publication PMC4175270, this text covers stoichiometry N for 2 substances.

Test [1] concerns the target His6-MobC (WT MobC of plasmid RA3) (plasmid RA3 (IncU), isolated from Aeromonas hydrophila). The test is described as follows: SEC-MALS; gel filtration on Superdex 200 10/300 GL with UV, MALS and refractometer in line; 10 mM Tris pH 8.0, 150 mM NaCl; 0.5 ml of His6-MobC at 0.24 mg ml^-1 or His6-MobC1-129 at 0.04 mg ml^-1; no higher oligomers of MobC detected. Background: SEC sorts molecules by how far they enter the pores of the column.

Test [2] addresses His6-MobC1-129 (plasmid RA3 (IncU), isolated from Aeromonas hydrophila). The test is described as above.
For test [3] the target is unchanged. Nature of the test: cross-linking; His-tagged MobC derivatives (0.1 mg ml^-1) with 0.001%, 0.005% and 0.01% glutaraldehyde; 20% SDS-PAGE, Western blot with anti-His tag antibodies.

On to “His6-MobC (WT MobC of plasmid RA3) (natural protein)”, for which the stoichiometry N (in general, a count of units in the complex or per binding partner) in test [1] is 2. For His6-MobC1-129 (domain or fragment), the stoichiometry N in test [2] and in test [3] was 2 in each case.
